B1: hDAPK2 CD + ARD wild type (pETM14 construct for SEC, SAXS, CaM pull-down and FA) [human] / itself (parent)
chain: NMEPFKQQKVEDFYDIGEELGSGQFAIVKKCREKSTGLEYAAKFIKKRQSRASRRGVSREEIEREVSILRQVLHHNVITLHDVYENRTDVVLILELVSGGELFDFLAQKESLSEEEATSFIKQILDGVNYLHTKKIAHFDLKPENIMLLDKNIPIPHIKLIDFGLAHEIEDGVEFKNIFGTPEFVAPEIVNYEPLGLEADMWSIGVITYILLSGASPFLGDTKQETLANITAVSYDFDEEFFSQTSELAKDFIRKLLVKETRKRLTIQEALRHPWITPVDNQQAMVRRESVVNLENFRKQYVRRRWKLSFSIVSLCNHLTR

Variants of: B1
Experiment: analytical size-exclusion chromatography (SEC)
Details: with itself

Variant | screen value
chain 1 R48E R51E R54E R55E | 4410 kDa

Reference: paper PMC4906247
